Assay results: patent publication US20080044423A1 (AstraZeneca / MedImmune, published 2008)
Where “and” joins values, the source holds several entries; their conditions need not be identical. Equal values may be shown once. Read-outs that look alike come from different tables or passages of the source.

What was measured:
[1] = target: T1, human IL-17A derived from the HEK-EBNA expression system (human, UniProt Q16552 24-155); test: cell-based or functional assay
cynomolgus IL-17A [2] = target: T2, cynomolgus IL-17A (cynomolgus, UniProt Q16552 24-155 (human entry), limits assumed); test: cell-based or functional assay
T2 chain: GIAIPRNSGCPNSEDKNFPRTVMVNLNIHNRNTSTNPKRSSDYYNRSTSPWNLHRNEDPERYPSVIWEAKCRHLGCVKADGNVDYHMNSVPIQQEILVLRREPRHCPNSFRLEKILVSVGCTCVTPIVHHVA

[3] = target: T3, human IL-17A, untagged, E. coli derived (in house or Peprotech) (human, UniProt Q16552 24-155); test: cell-based or functional assay
[4] = target: T3, human IL-17A, untagged, E. coli derived …; test: cell-based or functional assay; remark: listed apart in the source
[5] = target: T4, human IL-17C (R & D Systems) (human, UniProt Q9P0M4 19-197); test: DELFIA epitope competition vs biotinylated human IL-17A on immobilised IgG
T4 sequence (looked up): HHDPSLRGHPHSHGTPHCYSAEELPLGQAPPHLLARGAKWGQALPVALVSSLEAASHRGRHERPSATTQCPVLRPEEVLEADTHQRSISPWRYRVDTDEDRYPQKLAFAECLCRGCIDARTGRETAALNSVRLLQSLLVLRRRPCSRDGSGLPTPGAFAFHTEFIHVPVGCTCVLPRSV

human IL-17D (Peprotech) [6] = target: T5, human IL-17D (Peprotech) (human, UniProt Q8TAD2 18-202, limits assumed); test: as above
T5 sequence (looked up): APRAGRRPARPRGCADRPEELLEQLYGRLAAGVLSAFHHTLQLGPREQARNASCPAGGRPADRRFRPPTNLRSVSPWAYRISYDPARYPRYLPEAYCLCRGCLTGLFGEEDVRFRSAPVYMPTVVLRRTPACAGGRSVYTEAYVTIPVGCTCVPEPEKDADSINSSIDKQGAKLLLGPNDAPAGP

human IL-17F (Peprotech) [7] = target: T6, human IL-17F (Peprotech) (human, UniProt Q96PD4 31-163, limits assumed); test: as above
T6 sequence (looked up): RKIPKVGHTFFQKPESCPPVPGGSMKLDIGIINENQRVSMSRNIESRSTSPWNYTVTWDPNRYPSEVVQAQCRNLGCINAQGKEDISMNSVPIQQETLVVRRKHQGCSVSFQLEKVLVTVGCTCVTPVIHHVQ

human IL-17B (Peprotech) [8] = target: T7, human IL-17B (Peprotech) (human, UniProt Q9UHF5 21-180, limits assumed); test: as above
T7 sequence (looked up): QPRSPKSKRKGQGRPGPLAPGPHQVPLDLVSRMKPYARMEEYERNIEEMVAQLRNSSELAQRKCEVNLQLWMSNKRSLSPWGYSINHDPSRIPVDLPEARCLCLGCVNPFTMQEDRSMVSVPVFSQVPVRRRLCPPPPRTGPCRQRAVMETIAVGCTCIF

[9] = target: T8, murine IL-17A (R & D Systems) (murine, UniProt Q62386 22-158, limits assumed); test: as above
T8 sequence (looked up): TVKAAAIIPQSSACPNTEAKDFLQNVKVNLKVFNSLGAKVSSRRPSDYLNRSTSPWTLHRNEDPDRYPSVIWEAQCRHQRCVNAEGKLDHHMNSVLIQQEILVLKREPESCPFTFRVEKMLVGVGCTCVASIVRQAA

[10] = target: T9, human IL-17E (R & D Systems) (human, UniProt Q9H293 33-177); test: as above
T9 sequence (looked up): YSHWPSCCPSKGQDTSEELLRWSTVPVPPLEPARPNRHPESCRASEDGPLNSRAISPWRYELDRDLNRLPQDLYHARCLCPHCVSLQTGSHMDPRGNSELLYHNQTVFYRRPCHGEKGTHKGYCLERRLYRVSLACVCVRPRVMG

cynomolgus IL-17A [11] = target: T2, cynomolgus IL-17A; test: cell-based or functional assay
[12] = target: human IL-17A (HT1080 assay of Example 1, source not stated) (human, UniProt Q16552 24-155); test: cell-based or functional assay
[13] = target: T3, human IL-17A, untagged, E. coli derived …; test: cell-based or functional assay; remark: listed apart in the source
[14] = target: T3, human IL-17A, untagged, E. coli derived …; test: cell-based or functional assay; remark: listed apart in the source
[15] = target: native IL-17A derived from primary human T cells (human, UniProt Q16552 24-155, N-linked glycosylation); test: cell-based or functional assay
[16] = target: T4, human IL-17C (R & D Systems); test: HTRF epitope competition vs HIS FLAG IL-17A binding the IgG
human IL-17D (Peprotech) [17] = target: T5, human IL-17D (Peprotech); test: as above
human IL-17F (Peprotech) [18] = target: T6, human IL-17F (Peprotech); test: as above
human IL-17B (Peprotech) [19] = target: T7, human IL-17B (Peprotech); test: as above
[20] = target: T8, murine IL-17A (R & D Systems); test: as above
[21] = target: T9, human IL-17E (R & D Systems); test: as above
[22] = target: T3, human IL-17A, untagged, E. coli derived …; test: cell-based or functional assay; remark: listed apart in the source
[23] = target: T1, human IL-17A derived from the HEK-EBNA …; test: estimated from pA2 (Schild) analysis in the HT1080 IL-6 release assay
[24] = target: T1, human IL-17A derived from the HEK-EBNA …; test: cell-based or functional assay; remark: listed apart in the source
[25] = target: T3, human IL-17A, untagged, E. coli derived …; test: cell-based or functional assay; remark: listed apart in the source

B1: Antibody 1 IgG1 (antibody, V domains shown)
VH: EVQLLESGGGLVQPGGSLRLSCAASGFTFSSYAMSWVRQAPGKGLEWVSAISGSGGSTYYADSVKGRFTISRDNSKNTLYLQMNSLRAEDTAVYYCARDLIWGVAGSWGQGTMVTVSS
VL: NFMLTQPHSVSESPGKTVTISCTRSSGSLANYYVQWYQQRPGSAPTIVIFANNQRPSGVPDRFSGSIDSSSNSASLTISRLKTEDEADYYCQSYDDSSVVFGGGTKLTVL
notes: human IgG1, lambda; constant regions not in the listing; also called Antibody 01; TINA12 IgG1
HT1080 IL-6 release, IgG IC50 [1]: 23 nM
Fold difference in cross-reactivity (IgG) (cynomolgus IL-17A [2]): 6 fold
HT1080 IL-6 release, IgG IC50 (cynomolgus IL-17A [2]): 144 nM
chondrocyte IL-8 release, geometric mean IC50 at 0.2 nM IL-17A [3]: 18.1 nM
chondrocyte IL-8 release, geometric mean IC50 at 2 nM IL-17A [3]: 44.5 nM
chondrocyte IL-6 release, geometric mean IC50 at 0.2 nM IL-17A [4]: 29.9 nM
chondrocyte IL-6 release, geometric mean IC50 at 2 nM IL-17A [4]: 75.7 nM
binding result [5]: no binding (tested: approx 100:1 over labelled IL-17A)
binding result (human IL-17D (Peprotech) [6]): no binding (tested: approx 100:1 over labelled IL-17A)
binding result (human IL-17F (Peprotech) [7]): no binding (tested: approx 100:1 over labelled IL-17A)
binding result (human IL-17B (Peprotech) [8]): no binding (tested: approx 100:1 over labelled IL-17A)
binding result [9]: no binding (tested: approx 100:1 over labelled IL-17A)
binding result [10]: no binding (tested: approx 100:1 over labelled IL-17A)
HT1080 IL-6 release, IgG IC50 (cynomolgus IL-17A [11]): 172 nM
HT1080 IL-6 release, IgG IC50 [12]: 22 nM
chondrocyte MMP13 release, IC50 at 2 nM IL-17A [13]: 147 nM and > 400 nM
chondrocyte MMP13 release, geometric mean IC50 at 0.2 nM IL-17A [13]: 110 nM

B2: Antibody 2 IgG1 (antibody, V domains shown)
VH: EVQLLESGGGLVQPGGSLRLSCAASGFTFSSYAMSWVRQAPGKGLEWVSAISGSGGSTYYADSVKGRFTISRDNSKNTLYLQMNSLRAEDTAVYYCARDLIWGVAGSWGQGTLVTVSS
VL: NFMLTQPHSVSESPGKTVTISCTRSSGSLANYYVQWYQQRPGSSPTIVIFANNQRPSGVPDRFSGSIDSSSNSASLTISGLKTEDEADYYCQSYDPHSVVFGGGTKLTVL
notes: human IgG1, lambda; constant regions not in the listing; also called Antibody 02
chondrocyte IL-6 release, geometric mean IC50 at 0.2 nM IL-17A [14]: 1.52 nM
chondrocyte IL-6 release, geometric mean IC50 at 2 nM IL-17A [14]: 5.51 nM
T cell supernatant induced IL-6 production in HT1080 cells, IC50 [15]: 0.25 nM
binding result [16]: no binding
binding result (human IL-17D (Peprotech) [17]): no binding
binding result (human IL-17F (Peprotech) [18]): no binding
binding result (human IL-17B (Peprotech) [19]): no binding
binding result [20]: no binding
binding result [21]: no binding
HT1080 IL-6 release, IgG IC50 [1]: 1.5 nM
Fold difference in cross-reactivity (IgG) (cynomolgus IL-17A [2]): 12 fold
HT1080 IL-6 release, IgG IC50 (cynomolgus IL-17A [2]): 18.3 nM
chondrocyte IL-8 release, geometric mean IC50 at 0.2 nM IL-17A [3]: 2.3 nM
chondrocyte IL-8 release, geometric mean IC50 at 2 nM IL-17A [3]: 7.91 nM
chondrocyte IL-8 release, geometric mean IC50 at 0.2 nM IL-17A [22]: 1.49 nM
chondrocyte IL-8 release, geometric mean IC50 at 2 nM IL-17A [22]: 7.18 nM
Kd [23]: 0.188 nM
HT1080 synergised IL-6 release (125 pM human IL-17 + 25 pM human TNFα), IgG IC50 [24]: 0.41 nM
cartilage explant synergised IL-6 response, Mean IC50 [25]: 3.39 nM
